Data reported in PMC11933844, “Autosuppression of MdNAC18.1 endowed by a 61‐bp promoter fragment duplication delays maturity date in apple”.

B1: MdNAC18.1 P promoter probe mutant (dsDNA)
DNA 1: GACATACAATGTTCTGATTCGTATGAGATAACTTAA
DNA 2: TTAAGTTATCTCATACGAATCAGAACATTGTATGTC
B2: MdACO1-like promoter probe mutant (dsDNA)
DNA 1: TCAAGTACCATAACAAAAAATAACTTGCAAAGTTCC
DNA 2: GGAACTTTGCAAGTTATTTTTTGTTATGGTACTTGA
B3: MdACS1 promoter probe mutant (dsDNA)
DNA 1: GTACACTTATAATAAAAAAACAAGTTTGTAGGTAAT
DNA 2: ATTACCTACAAACTTGTTTTTTTATTATAAGTGTAC
B4: MdMYC2 promoter probe NACBS1 (dsDNA)
DNA 1: TCTGGGATCCTGGTTTCACGGGTTTTCGAGGTTTTC
DNA 2: GAAAACCTCGAAAACCCGTGAAACCAGGATCCCAGA
B5: MdNAC72 promoter probe NACBS1 (dsDNA)
DNA 1: TATTGACCCACATTTGCACGTAGCCTTGTAAACTTG
DNA 2: CAAGTTTACAAGGCTACGTGCAAATGTGGGTCAATA
B6: MdACS1 promoter probe NACBS5 (dsDNA)
DNA 1: GTACACTTATAATCCCCACGCAAGTTTGTAGGTAAT
DNA 2: ATTACCTACAAACTTGCGTGGGGATTATAAGTGTAC
B7: MdNAC18.1 P promoter probe (CTAAC) (dsDNA)
DNA 1: GACATACAATGTTCTGATTCGTATTCTAACACTTAA
DNA 2: TTAAGTGTTAGAATACGAATCAGAACATTGTATGTC
B8: MdACO1-like promoter probe NACBS1 (dsDNA)
DNA 1: TCAAGTACCATAACTACACGTAACTTGCAAAGTTCC
DNA 2: GGAACTTTGCAAGTTACGTGTAGTTATGGTACTTGA

target: MdNAC18.1 (UniProt A0A498K6T8 1-364); test: EMSA; Beyotime Chemiluminescent EMSA Kit GS009; buffer, salt, pH and temperature not stated; conditions: protein: recombinant; tags: His (pET32A); chain copies: 2; blunt
Sequence (A0A498K6T8 entry or part of it): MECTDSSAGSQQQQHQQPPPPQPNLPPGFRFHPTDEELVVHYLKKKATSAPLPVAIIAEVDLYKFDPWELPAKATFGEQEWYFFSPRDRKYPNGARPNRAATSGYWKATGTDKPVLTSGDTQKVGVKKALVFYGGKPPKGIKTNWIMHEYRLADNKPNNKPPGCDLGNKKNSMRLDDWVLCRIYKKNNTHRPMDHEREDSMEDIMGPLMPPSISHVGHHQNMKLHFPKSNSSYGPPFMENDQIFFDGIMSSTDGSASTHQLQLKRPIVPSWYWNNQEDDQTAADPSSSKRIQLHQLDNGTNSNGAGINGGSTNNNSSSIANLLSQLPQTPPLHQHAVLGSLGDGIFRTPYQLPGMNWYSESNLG

Row | Binder | binding result
1 | B1 | no binding
2 | B2 | no binding
3 | B3 | no binding
4 | B4 | binds

same assay, conditions: protein: recombinant; tags: His (pET32A); chain copies: 2; label: 3' biotin; blunt

Row | Binder | binding result
5 | B5 | binds
6 | B6 | binds
7 | B7 | binds
8 | B8 | binds

target: T1, MdNAC72 (UniProt A0A498KB81 69-407); test: as above; conditions: protein: recombinant; tags: His (pET32A); chain copies: 2; label: 3' biotin; blunt
T1 sequence: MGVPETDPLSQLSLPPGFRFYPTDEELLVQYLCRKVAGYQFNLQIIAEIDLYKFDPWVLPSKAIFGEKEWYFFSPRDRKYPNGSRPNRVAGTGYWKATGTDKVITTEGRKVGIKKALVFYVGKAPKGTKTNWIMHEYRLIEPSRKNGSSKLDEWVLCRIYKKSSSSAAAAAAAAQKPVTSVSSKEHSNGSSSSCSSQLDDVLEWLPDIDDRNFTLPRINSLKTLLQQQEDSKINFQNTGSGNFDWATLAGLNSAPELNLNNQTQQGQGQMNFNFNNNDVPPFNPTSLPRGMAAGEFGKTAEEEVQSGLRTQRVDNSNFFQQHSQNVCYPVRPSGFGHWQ

Row | Binder | binding result
9 | B8 | binds
